Reference: the Immune Epitope Database (IEDB)

Tests used:
Assay in all cases: IEDB peptide-MHC binding, purified MHC/competitive/radioactivity; filed as Kd, often an IC50 or EC50 that approximates it; ≥ and ≤ were set here for values at or beyond the usual limits of such assays
[1] = molecular target: HLA-A*02:02
[2] = molecular target: HLA-A*02:03
[3] = molecular target: HLA-A*02:06
[4] = source organism: Vaccinia virus WR
[5] = source organism: SARS coronavirus Tor2

Sequence | Kd [1, 4] [µM] | Kd [2, 4] [µM] | Kd [3, 4] [µM] | other results
AAIDRQVSV | 0.933 | 0.0186 | 0.0149 | 
AIMAVGMVSI |  |  |  | Kd ([2]; source organism: Dengue virus 2 Jamaica/1409/1983): 0.058 µM
AMHDKKIDI | 17.2 | 1.52 | ≥ 42 | 
ATLNTLITLI | 0.0315 | 0.0279 | 0.198 | 
CIVQSVLRDI | 0.218 | 0.158 | 0.849 | 
DAKRNSKSLV | 13.3 | 2.87 | ≥ 52.1 | 
DINVIGLIV | 9.8 | 4.05 | 5.53 | 
DLMSSKDDV |  |  |  | Kd ([3]; source organism: Homo sapiens): ≥ 132 µM
DTDIVNNFIT | 8.59 | 5.59 | 2.31 | 
FLITGVFDI |  |  |  | Kd [1, 5]: 0.000686 µM; Kd [2, 5]: 0.000765 µM; Kd [3, 5]: 0.00148 µM
FLIVAALVFL |  |  |  | Kd [1, 5]: 0.00302 µM; Kd [2, 5]: 0.162 µM; Kd [3, 5]: 0.00364 µM
FTSDYPFYV | 0.00207 | 0.00391 | 0.00358 | 
FTYASALWEI |  |  |  | Kd [1, 5]: 0.0016 µM; Kd [2, 5]: 0.00605 µM; Kd [3, 5]: 0.00254 µM
FVKKMLPKII | 11.1 | 1.14 | 6.71 | 
GLSQRHEEKV |  |  |  | Kd ([3]; source organism: Homo sapiens): ≥ 53.8 µM
HTKFWISDNT | ≥ 21.5 | ≥ 60.2 | ≥ 69.8 | 
ILNPYMPSVV |  |  |  | Kd ([2]; source organism: Dengue virus 1 Brazil/97-11/1997): 0.00326 µM
ILRNYLRLYI | 0.000394 | 0.000895 | 0.065 | 
IQYRQQLELA | 4.32 | 8.47 | ≥ 69.8 | 
ITNILGGVL | 7.38 | 2.44 | ≥ 32.4 | 
ITPNNLNKI | 14.6 | 0.876 | 0.409 | 
IVAAVIIMAI | 0.727 | 2.61 | 4.51 | 
IVDKFGKNHI | 2.93 | 5.08 | 8.33 | 
IVTFINDYA | 0.14 | 2.96 | 1.15 | 
KIILFLTLI |  |  |  | Kd [1, 5]: 0.0681 µM; Kd [2, 5]: 0.00494 µM; Kd [3, 5]: 0.0243 µM
KIYTLIYRQL | 0.707 | 1.03 | 0.912 | 
KLISEKETL | 0.841 | ≥ 24.7 | 7.65 | 
KLRSSPPIPM | 0.0576 | 0.134 | 2.21 | 
KLTLKGMSYV |  |  |  | Kd ([2]; source organism: Dengue virus 1 Singapore/S275/1990): 0.0534 µM
